The target in the data set is DosR (DevR) (Mycobacterium tuberculosis H37Rv) (UniProt P9WMF9). As to the kind of experiment: EMSA.
Sequence of DosR (DevR) (Mycobacterium tuberculosis H37Rv) (P9WMF9 whole entry): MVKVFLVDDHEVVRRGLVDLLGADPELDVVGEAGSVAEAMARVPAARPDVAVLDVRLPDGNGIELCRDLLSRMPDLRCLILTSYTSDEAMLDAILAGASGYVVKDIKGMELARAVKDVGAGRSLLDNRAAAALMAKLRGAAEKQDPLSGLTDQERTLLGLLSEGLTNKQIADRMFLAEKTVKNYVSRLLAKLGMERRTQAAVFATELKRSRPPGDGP
Take “AGCGGGATCGCATCACGCATTGGGTACCTCCGATGCTGGCGGATAAAGCCTTTCGTGCCGGCGGATGATCCGAGGTCGCTAGCTGGCGAGGGCCATGGGCGAGCA (double strand) [rv2625 promoter]”: the binding result was “no binding”.
Regarding “AGCGGTTCGGACTCCACCGCGTCTCCTGAGAGCTTCAGCGTTACATCGGTTGACGAGTTGAAGAATTTATCAGATAGTGCGGATGCGTGCGGGCCGCCCGCGGCCAATCGGCTACGGCGTACGCGAGTCAGC (double strand) [rv0081 promoter]”, the binding result is “no binding”.
As for “TAAGTGGACACGAACCGTAAGTTTAGACTTACGGATATTCTTCCGCAAGGGTGCGCGGGTGGTGTGACACGTGATCCGGGCATCCCGTCACCCATGGCGTTGGAGCCGAGTATCGGTTGGCGACGTTGGCCCGCCGGAAAGTCGACTGGTACAAGCATTTTCCGAGAACCCATGCGGCGCGTCGCGGCGATGACCGGCAGAGAGGCTCCCTAGTATTGCGGCGTGCTGGATCGCTATGGAACCGA (double strand) [rv1955 promoter]”, the entry is “binds”; as for “TGGTATCTGACACTGCTACGTTCCTTTCCGCTTGTTGGTCCACGTCCTTGCACGAGCCAACCGGACCATGGTCCGATTTATTCCGATCGCGTTACAGTGCAAAGGTGAGCGGCGCCGAGC (double strand) [rv3054 promoter]”, “binds”.
